Source: paper PMC10023680 (2023)

B1: GST-tagged ELMO1-RBD (residues 1-113), wild-type (domain or fragment)
chain: MPPPADIVKVAIEWPGAYPKLMEIDQKKPLSAIIKEVCDGWSLANHEYFALQHADSSNFYITEKNRNEIKNGTILRLTTSPAQNAQQLHERIQSSSMDAKLEALKDLASLSRD
B2: RhoG (residues 1-184) (domain or fragment)
chain: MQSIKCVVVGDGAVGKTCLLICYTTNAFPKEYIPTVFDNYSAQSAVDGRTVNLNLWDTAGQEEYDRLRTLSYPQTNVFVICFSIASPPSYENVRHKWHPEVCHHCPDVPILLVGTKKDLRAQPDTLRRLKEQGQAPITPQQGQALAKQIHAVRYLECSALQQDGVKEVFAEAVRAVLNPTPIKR

How the values were obtained:
Assay in all cases: SPR
RhoG (residues 1-184) = biological target: B2
[1] = biological target: GST-tagged ELMO1-RBD (residues 1-113) Y18A (human, UniProt Q92556 1-113, Y18A)
[2] = biological target: GST-tagged ELMO1-RBD (residues 1-113) K20E (human, UniProt Q92556 1-113, K20E)

RhoG (residues 1-184), sequence (P84095 1-184): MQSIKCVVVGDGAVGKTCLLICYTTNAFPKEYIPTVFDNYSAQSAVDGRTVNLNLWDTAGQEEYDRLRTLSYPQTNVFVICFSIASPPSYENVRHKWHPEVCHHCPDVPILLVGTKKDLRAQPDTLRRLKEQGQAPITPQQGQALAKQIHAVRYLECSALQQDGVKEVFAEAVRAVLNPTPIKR

Binder	Kd (RhoG (residues 1-184)) [µM]	Kd [1] [µM]	Kd [2] [µM]
B1	8.4		
B2		19.3	18.2
